Test results from publication PMC8549523, “Human AdV-20-42-42, a Promising Novel Adenoviral Vector for Gene Therapy and Vaccine Product Development” (Journal of Virology, 2021).

Biological target: hexon protein of HAdV-20-42-42 (human adenovirus HAdV-20-42-42 (strain …))
Assay: SPR; affinity and interaction half-life told as data not shown; CD46 immobilised, hexon as analyte
Details: both partners purified

B1: CD46 (receptor)
chain: CEEPPTFEAMELIGKPKPYYEIGERVDYKCKKGYFYIPPLATHTICDRNHTWLPVSDDACYRETCPYIRDPLNGQAVPANGTYEFGYQMHFICNEGYYLIGEEILYCELKGSVAIWSGKPPICEKVLCTPPPKIKNGKHTFSEVEVFEYLDAVTYSCDPAPGPDPFSLIGESTIYCGDNSVWSRAAPECKVVKCRFPVVENGKQISGFGKKFYYKATVMFECDKGFYLDGSDTIVCDSNSTWDPPVPKCLKVLPPSSTKPPALSHSVSTSSTTKSPASSASGPRPTYKPPVSNYPGYPKPEEGILDSLD
**Q.** For B1, which Kd is on record?
**A.** 13.5 µM
